Consider two substances from patent publication US20100095387A1, “METHODS AND REAGENTS FOR SCREENING NEW DRUGS AND FOR TREATING ION PUMP ASSOCIATED DISORDERS AND DISEASES” (priority 2005, published 2010).

This assay has as its target α3 subunit of the Na+/K+-ATPase, endogenous on mouse cells (cortical neurons, cortical slices, cardiac myocytes) (mouse) (UniProt Q6PIC6). Briefly: cell-based or functional assay.

In the case of “C-Ag95z8, soluble 95-kD COOH terminus of mouse agrin, y4 z8 (from UniProt A2ASQ1 1144-1950) (ligand)”, the EC50 of c-fos induction (Fos in situ enzyme-linked immunoassay, cortical cultures) worked out at 0.0127 nM.

In turn, “C-Ag95z0, soluble 95-kD COOH terminus of mouse agrin, y4 z0 (from UniProt A2ASQ1 1144-1950) (ligand)” registered an EC50 of c-fos induction (Fos in situ enzyme-linked immunoassay, cortical cultures) of 0.0119 nM.
